Measured values taken from patent US20190247399A1, “COMBINATION OF AN ANTI-CD20 ANTIBODY, PI3 KINASE-DELTA INHIBITOR, AND ANTI-PD-1 OR ANTI-PD-L1 ANTIBODY FOR TREATING HEMATOLOGICAL CANCERS” (TG Therapeutics, Inc., priority 2016, published 2019).
Numbering of substitutions follows the chain as printed. Counter-ions that a name gives are not always drawn. Values belong to the molecule of their own block, whether it stands above or below them.

Key:
[1] = micronized vs non-micronized TGR-1202 formulations, pharmacokinetics; conditions: in vivo, po, 200 mg, single oral dose of 200 mg; for AUC(0-inf): read-out: AUC0-inf, Geometric LS Means; for AUC(0-t): read-out: AUC0-t, Geometric LS Means; for Cmax: read-out: Cmax, Geometric LS Means
[2] = oral TGR-1202 under fasted and fed conditions, pharmacokinetics; conditions: in vivo, 200 mg, single oral dose of 200 mg; for AUC(0-inf): read-out: AUC0-inf, Geometric LS Means; for AUC(0-t): read-out: AUC0-t, Geometric LS Means; for Cmax: read-out: Cmax, Geometric LS Means
PI3K isoforms (Human) γ = PI3K isoforms (Human) γ (Homo sapiens, UniProt P48736); assay: biochemical
Sequence of PI3K isoforms (Human) γ (P48736 whole entry, canonical isoform): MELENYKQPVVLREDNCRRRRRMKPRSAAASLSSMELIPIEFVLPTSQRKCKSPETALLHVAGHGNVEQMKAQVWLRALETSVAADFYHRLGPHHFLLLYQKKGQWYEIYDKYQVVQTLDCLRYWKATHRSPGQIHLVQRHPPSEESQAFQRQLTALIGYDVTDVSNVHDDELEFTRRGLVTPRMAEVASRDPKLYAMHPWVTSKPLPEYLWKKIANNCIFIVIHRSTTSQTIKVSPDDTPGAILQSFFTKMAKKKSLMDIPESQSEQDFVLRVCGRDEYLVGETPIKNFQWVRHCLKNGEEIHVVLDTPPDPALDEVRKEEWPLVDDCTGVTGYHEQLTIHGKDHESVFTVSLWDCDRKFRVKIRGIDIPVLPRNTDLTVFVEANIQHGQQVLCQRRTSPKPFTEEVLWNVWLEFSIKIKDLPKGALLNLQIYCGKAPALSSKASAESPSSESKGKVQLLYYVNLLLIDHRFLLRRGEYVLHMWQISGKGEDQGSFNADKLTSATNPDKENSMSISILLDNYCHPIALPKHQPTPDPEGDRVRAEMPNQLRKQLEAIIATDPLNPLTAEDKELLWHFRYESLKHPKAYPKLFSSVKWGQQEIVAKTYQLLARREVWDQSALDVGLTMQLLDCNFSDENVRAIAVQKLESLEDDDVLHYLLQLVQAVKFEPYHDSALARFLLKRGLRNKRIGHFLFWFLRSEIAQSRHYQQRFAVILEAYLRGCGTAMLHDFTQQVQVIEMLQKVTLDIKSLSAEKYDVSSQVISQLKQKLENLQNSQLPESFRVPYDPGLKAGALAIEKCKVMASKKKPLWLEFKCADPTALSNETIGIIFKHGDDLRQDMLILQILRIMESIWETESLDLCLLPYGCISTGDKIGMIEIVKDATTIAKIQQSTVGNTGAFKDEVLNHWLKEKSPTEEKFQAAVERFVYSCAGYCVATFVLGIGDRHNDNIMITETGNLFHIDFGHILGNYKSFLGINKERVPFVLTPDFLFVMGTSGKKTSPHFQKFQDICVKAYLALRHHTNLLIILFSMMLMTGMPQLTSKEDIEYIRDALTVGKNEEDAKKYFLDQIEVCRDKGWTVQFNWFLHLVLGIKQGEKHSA

[3] = tested on: patients with relapsed and refractory hematologic malignancies; conditions: single agent; relapsed or refractory hematologic malignancies; cited from earlier work
PI3K isoforms (Human) β = PI3K isoforms (Human) β (Homo sapiens, UniProt P42338); assay: biochemical
Sequence of PI3K isoforms (Human) β (P42338 whole entry, canonical isoform): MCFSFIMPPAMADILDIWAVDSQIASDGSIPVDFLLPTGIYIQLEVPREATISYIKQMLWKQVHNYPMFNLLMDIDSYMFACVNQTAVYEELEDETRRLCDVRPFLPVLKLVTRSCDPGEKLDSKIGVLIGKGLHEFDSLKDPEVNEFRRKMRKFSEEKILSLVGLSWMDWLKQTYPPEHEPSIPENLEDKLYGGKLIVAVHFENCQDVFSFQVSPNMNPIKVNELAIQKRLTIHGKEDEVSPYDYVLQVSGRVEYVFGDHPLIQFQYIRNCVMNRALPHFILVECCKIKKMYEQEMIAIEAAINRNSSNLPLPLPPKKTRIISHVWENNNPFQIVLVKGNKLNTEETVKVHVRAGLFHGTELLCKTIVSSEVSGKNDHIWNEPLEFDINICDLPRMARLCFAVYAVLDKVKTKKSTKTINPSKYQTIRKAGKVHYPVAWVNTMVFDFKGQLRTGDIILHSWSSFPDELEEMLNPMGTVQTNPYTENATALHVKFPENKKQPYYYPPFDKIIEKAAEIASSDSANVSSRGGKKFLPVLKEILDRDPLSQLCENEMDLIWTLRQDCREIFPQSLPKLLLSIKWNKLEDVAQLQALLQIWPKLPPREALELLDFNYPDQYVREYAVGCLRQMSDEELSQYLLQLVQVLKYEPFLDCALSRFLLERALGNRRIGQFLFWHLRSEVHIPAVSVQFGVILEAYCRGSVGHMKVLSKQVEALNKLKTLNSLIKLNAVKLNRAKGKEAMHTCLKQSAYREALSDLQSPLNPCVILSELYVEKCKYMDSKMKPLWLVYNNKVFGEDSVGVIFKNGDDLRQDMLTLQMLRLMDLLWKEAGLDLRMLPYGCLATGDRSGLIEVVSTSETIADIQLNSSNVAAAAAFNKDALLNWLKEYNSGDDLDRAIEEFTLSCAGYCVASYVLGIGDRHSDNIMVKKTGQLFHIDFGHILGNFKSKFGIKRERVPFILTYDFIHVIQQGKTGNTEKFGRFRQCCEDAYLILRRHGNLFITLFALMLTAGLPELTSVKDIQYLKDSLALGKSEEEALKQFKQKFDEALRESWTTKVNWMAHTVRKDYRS
Sequence of PI3K isoforms (Human) β (P27986 whole entry partner, canonical isoform): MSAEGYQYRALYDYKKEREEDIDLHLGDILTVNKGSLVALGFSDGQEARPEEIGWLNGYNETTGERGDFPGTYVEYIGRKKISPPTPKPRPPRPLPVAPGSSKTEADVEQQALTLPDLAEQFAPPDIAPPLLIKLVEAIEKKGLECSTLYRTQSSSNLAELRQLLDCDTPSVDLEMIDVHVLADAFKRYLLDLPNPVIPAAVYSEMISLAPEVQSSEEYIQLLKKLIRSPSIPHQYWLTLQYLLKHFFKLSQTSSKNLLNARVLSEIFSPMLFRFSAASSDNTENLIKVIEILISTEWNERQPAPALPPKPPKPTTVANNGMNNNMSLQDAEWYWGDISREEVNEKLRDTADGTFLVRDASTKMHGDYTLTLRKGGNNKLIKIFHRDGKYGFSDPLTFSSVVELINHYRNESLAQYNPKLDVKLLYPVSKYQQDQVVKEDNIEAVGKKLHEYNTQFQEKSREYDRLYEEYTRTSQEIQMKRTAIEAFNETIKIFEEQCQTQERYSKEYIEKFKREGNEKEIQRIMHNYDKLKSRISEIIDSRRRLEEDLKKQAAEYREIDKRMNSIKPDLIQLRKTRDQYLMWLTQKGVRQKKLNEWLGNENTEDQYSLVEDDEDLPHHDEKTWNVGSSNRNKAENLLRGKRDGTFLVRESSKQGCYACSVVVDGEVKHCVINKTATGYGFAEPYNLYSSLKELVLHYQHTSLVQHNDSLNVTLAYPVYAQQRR

PI3K isoforms (Human) α = PI3K isoforms (Human) α (Homo sapiens, UniProt P42336); assay: biochemical
Sequence of PI3K isoforms (Human) α (P42336 whole entry, canonical isoform): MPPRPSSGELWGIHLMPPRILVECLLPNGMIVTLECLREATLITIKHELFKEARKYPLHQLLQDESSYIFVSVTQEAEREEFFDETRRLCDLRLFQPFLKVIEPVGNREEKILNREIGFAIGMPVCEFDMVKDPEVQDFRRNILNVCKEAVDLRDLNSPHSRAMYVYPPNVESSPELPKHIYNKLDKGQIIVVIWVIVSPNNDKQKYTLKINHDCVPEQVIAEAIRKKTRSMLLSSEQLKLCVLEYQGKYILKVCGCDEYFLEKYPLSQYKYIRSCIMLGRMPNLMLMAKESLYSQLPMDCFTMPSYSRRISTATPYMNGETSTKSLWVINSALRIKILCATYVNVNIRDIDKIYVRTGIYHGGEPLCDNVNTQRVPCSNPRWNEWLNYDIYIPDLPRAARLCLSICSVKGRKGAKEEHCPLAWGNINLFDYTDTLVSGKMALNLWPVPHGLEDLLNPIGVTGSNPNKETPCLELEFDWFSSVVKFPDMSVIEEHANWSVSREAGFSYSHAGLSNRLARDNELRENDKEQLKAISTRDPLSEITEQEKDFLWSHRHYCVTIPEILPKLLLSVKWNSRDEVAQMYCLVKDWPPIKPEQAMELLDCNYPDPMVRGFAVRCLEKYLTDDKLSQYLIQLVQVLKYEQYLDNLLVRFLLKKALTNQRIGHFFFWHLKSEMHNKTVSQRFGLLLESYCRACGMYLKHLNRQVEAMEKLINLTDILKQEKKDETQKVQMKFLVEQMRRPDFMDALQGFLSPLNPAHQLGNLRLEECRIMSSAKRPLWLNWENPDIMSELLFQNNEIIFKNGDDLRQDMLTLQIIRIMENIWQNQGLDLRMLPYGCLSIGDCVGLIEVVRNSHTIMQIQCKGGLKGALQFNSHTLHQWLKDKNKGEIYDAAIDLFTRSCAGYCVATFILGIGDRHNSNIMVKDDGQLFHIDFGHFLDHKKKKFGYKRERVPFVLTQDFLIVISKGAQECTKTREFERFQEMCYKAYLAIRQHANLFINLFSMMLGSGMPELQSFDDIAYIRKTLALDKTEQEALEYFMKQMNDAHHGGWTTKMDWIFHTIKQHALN
Sequence of PI3K isoforms (Human) α (P27986 whole entry partner, canonical isoform): as the sequence (P27986 whole entry partner, canonical isoform) above

patients with CLL = conditions: pembrolizumab alone; cited from earlier work
[4] = target: T1, PD-L1 antigen of the ForteBio affinity measurement (Example 7) (UniProt Q9NZQ7 19-238, limits assumed); assay: ForteBio BLI, IgG on AHQ sensors, 100 nM antigen, 1:1 model, monovalent
T1 sequence (Q9NZQ7 19-238 limits assumed): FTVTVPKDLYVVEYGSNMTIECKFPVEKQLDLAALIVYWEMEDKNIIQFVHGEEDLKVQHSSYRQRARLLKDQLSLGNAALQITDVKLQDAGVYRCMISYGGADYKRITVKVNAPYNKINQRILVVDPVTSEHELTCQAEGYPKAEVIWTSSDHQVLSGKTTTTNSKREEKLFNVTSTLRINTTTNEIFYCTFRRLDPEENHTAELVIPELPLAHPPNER

[5] = target: T1, PD-L1 antigen of the ForteBio affinity …; assay: ForteBio BLI, IgG on AHQ sensors, 100 nM antigen, 1:1 model
[6] = target: T2, PD-L1 expressed on transfected CHO cells (UniProt Q9NZQ7 19-290); assay: competitive FACS on PD-L1+ CHO cells; competitor biotin-labeled PD-1 at 1 µg/ml
T2 construct: whole, on cells; also called PD-L1+cells; PD-L-1+cells
T2 sequence (Q9NZQ7 19-290): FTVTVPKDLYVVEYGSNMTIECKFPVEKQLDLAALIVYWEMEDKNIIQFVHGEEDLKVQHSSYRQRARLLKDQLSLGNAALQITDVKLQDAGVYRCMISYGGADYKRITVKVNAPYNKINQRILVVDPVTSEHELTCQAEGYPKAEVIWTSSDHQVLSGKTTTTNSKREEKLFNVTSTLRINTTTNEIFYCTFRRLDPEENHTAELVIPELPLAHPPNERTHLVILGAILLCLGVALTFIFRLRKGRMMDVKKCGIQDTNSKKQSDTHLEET

IFN-γ production = IFN-γ production in mixed lymphocyte reaction (MLR) cultures; format: cell-based; conditions: 4-day MLR culture, antibodies at 10 μg/mL, over control levels
Experimental: FIG. 6 is a bar graph showing the effect of the disclosed PD-L1 antibodies on IFN-γ production. Antibodies were dosed into mixed lymphocyte reaction (MLR) cultures at a concentration of 10 μg/mL. Data were normalized to vehicle control and are presented as combined mean+SEM (n=6). *p<0.05**p<0.01,***p<0.001 indicates statistical significance when compared to appropriate isotype control (hIgG1) using Ordinary one-way ANOVA with Dunnett's multiple comparison post-hoc test.
Antibodies were dosed into mixed lymphocyte reaction (MLR) cultures in order to determine the effects of the disclosed antibodies on IFN-γ production. The fold change in production of IFN-γ was determined after a 4-day MLR culture with antibodies at a concentration of 10 μg/mL. […] Further, many of the tested PD-L1 antibodies elicited a statistically significant increase in IFN-γ production, including a roughly 10-fold increase by CTI-33 and CTI-55 over control levels.

SUDHL-1 lymphoma cells = assay: ADCC activity of anti-PD-L1 antibodies; format: cell-based; conditions: PD-L1+ lymphoma cells with primary NK cells
Experimental: Reporter bioassays were performed in order to determine antibody-dependent cell—mediates cytotoxicity (ADCC) of the disclosed anti-PD-L1 antibodies. The assays utilized SUDHL-1 lymphoma cells and donor PBMCs. Various antibodies were tested at concentrations of 1 or 3 μg/ml.
The results of this study, which are shown for exemplary anti-PD-L1 antibody CTI-48 in FIG. 3, are represented by percent cytotoxicity following a 4 hour incubation with the disclosed antibodies.

cynoPDL1 = assay: Octet antibody binding kinetics; parameters: species or system cyno
Experimental: (§1) FIGS. 2A-2C are graphs showing the binding kinetics of exemplary anti-PD-L1 antibody CTI-48 against human PD-L1 (FIG. 2A), mouse PD-L1 (FIG. 2B), and cyno PD-L1 (FIG. 2C).
(§2) Octet data analysis was used in determining affinity measurements to assess antibody binding kinetics. 2 mL of the loading sample was prepared at 20 ug/mL (default concentration) in kinetic buffer. Aliquot at least 200 uL into a black 96-well plate. Concentration ranges for the sample were based on the estimated KD of the interaction (if available). […] A 7-point dilution was made into the sample column using kinetic buffer as the sample diluent. The last well of the sample column was used as a reference well later in data analysis, should only contain kinetic buffer.
(§3) Biosensors were hydrated in kinetic buffer (lx PBS, 0.1% BSA, 0.02% Tween20, 0.05% Sodium Azide) at room temperature for 10 minutes.

PD-L1 [7] = target: T3, PD-L1 (Homo sapiens, UniProt Q9NZQ7); assay: ForteBio affinity measurements; conditions: 100 nM antigen, 1:1 binding model
T3 sequence (Q9NZQ7 19-290): as above
Experimental: ForteBio affinity measurements were performed generally as previously described (see, e.g., Estep, P. et al., mAbs 5:270-278 (2013)). Briefly, ForteBio affinity measurements were performed by loading IgGs on-line onto AHQ sensors. Sensors were equilibrated off-line in assay buffer for 30 minutes and then monitored on-line for 60 seconds for baseline establishment. Sensors with loaded IgGs were exposed to 100 nM antigen for 5 minutes; afterwards, they were transferred to assay buffer for 5 minutes for off-rate measurement. Kinetics were analyzed using the 1:1 binding model.

PD-L1 [8] = target: T3, PD-L1; conditions: cited from earlier work
[9] = target: T4, binding of PD-L1 and B7.1 (Homo sapiens, UniProt Q9NZQ7); assay: PD-L1/B7.1 inhibitor screening assay; conditions: PD-L1 coated plate, B7.1-biotin
T4 construct: purchased
T4 sequence (Q9NZQ7 19-238 limits assumed): as the sequence (Q9NZQ7 19-238 limits assumed) above
Description: A commercially available assay kit was used to screen and profile the interaction of the disclosed antibodies and the PD-L1/B7.1 interaction. The kit came in a 96-well format with biotin-labeled B7-1 (CD80), purified PD-L1, streptavidin-labeled HRP, and assay buffer for 100 binding reactions. The kit was used to detect biotin-labeled B7.1 by streptavidin-HRP.
First, PD-L1 was coated on a 96-well plate. Next, either one of the disclosed antibodies, a positive control, a substrate control, or a blank was added to each well and incubated prior to the addition of B7.1-biotin. Finally, the plate was treated with streptavidin-HRP followed by addition of an HRP substrate to produce chemiluminescence, which can then be measured by a chemiluminescence reader.

PD-L1 [10] = target: T3, PD-L1; assay: Octet antibody binding kinetics
Experimental: as §1, §2, §3

PD-1:PD-L1 ligation = assay: immunoblockade reporter (NFAT) assay, PD1/PD-L1 Blockade Assay Kit; format: cell-based; conditions: Jurkat PD-1 Effector cells and aAPC PD-L1 cells
Experimental: Immunoblockade assays were performed using a PD1/PD-L1 Blockade Assay Kit (Promega, CS187111) in 96 well plates. Three major events occur in the assay. Event 1: TCR-mediated NFAT activation occurs when engineered Jurkat PD-1 Effector cells and aAPC (artificial antigen presenting cell) PD-L1 cells are engaged through TCR/TCR activator interaction. Event 2: Inhibition of NFAT signal by PD-1:PD-L1 ligation when no blocking antibodies are present. Event 3: Recovery of NFAT signal by addition of anti-PD-1 or anti-PD-L1 blocking antibody.
The day before assay, 25 mL of cell recovery medium (10% FBS/F-12) was made in 50 mL conical tubes for Thaw-and-Use PD-L1 cells by adding 2.5 mL FBS to 22.5 mL F-12. One vial of Thaw-and-Use PD-L1 cells (CS187103) was removed from freezer storage and transferred to the bench on dry ice. The vial was thawed in a 37° C. water bath until cells were just thawed (about 3-4 minutes). The cell suspension was gently mixed in the vial by pipetting up and down. All the cells (0.5 mL) were transferred to a tube labeled “PD-L1 cells” containing 14.5 mL cell recovery medium, followed by gentle inversions. […]
Thaw-and-Use PD-1 Effector cells (CS187105) were transferred into the assay plates, and the plates were incubated for six hours at 37° C. in CO2 incubator. […] Luminescence was measured in a POLARstar Omega plate reader with 0.5 second integration.

Kd [4]: 79.7 nM
koff [5]: 0.0392 s⁻¹
kon [5]: 492000 M⁻¹ s⁻¹
B1: CTI-07 (antibody, V domains shown)
VH: EVQLVQSGGEVKKPGASVKVSCKASGYTLSSHGITWVRQAPGQGLEWMGWISAHSGHASNAQKVEDRVTMTTDTSTNTAYMELRSLTADDTAVYYCARVHAALYYGMDVWGQGTLVTVSS
VL: LSVLTQPPSVSVAPGQTARITCGGNNIGSKGVHWYQQKPGQAPVLVVYDDSDRPSGIPERFSGSNSGNTATLTISRVEAGDEADYYCQVWDSSSDHWVFGGGTKLTVL

Kd (cynoPDL1): 0.555 nM
kdis (cynoPDL1): 0.000635 L/s
kon (cynoPDL1): 1.14E+06 l/Ms
koff (PD-L1 [7]): 0.000633 s⁻¹
kon (PD-L1 [7]): 768000 M⁻¹ s⁻¹
Kd (PD-L1 [7]; read-out: IgG KD (M) Monovalent): 8.24e-10 M
IC50 for binding inhibition [9]: 0.1816 µg/mL
Kd (PD-L1 [10]): 0.847 nM
kdis (PD-L1 [10]): 0.00061 L/s
kon (PD-L1 [10]): 7.20E+05 l/Ms
EC50, recovery of NFAT signal (PD-1:PD-L1 ligation): 0.0775 µg/mL
B4: CTI-48: fully human anti-PD-L1 IgG1; HCDR1-3 SEQ ID NO: 11, 19, 27; LCDR1-3 SEQ ID NO: 31, 33, 35 (antibody, chains of the INN, looked up, V domains shown)
VH: EVQLVQSGAEVKKPGSSVKVSCKASGGTFSRSAISWVRQAPGQGLEWMGVIIPAFGEANYAQKFQGRVTITADESTSTAYMELSSLRSEDTAVYYCARGRQMFGAGIDFWGQGTLVTVSS
VL: NFMLTQPHSVSESPGKTVTISCTRSSGSIDSNYVQWYQQRPGSAPTTVIYEDNQRPSGVPDRFSGSIDSSSNSASLTISGLKTEDEADYYCQSYDSNNRHVIFGGGTKLTVL
fold change in production of IFN-γ (IFN-γ production): comparable response to a clinical control mAb
ADCC activity (SUDHL-1 lymphoma cells): exhibits ADCC activity
binding affinity for PD-L1 (PD-L1 [8]): sub-nanomolar

Second part, the molecule before the results:

Molecule: CC(C)Oc1ccc(-c2nn([C@@H](C)c3oc4ccc(F)cc4c(=O)c3-c3cccc(F)c3)c3ncnc(N)c23)cc1F [TGR-1202, (S)-2-(1-(4-amino-3-(3-fluoro-4-isopropoxyphenyl)-1H-pyrazolo[3,4-d]pyrim-idin-1-yl)ethyl-6-fluoro-3-(3-fluorophenyl)-4H-chromen-4-one p-toluenesulfonic acid (PTSA) salt]
AUC(0-inf) ([1]; Micronized Formulation): 12400 ng·h/mL
AUC(0-t) ([1]; Micronized Formulation): 9440 ng·h/mL
Cmax ([1]; Micronized Formulation): 372 ng/mL
AUC(0-inf) ([1]; Non-Micronized Formulation): 7720 ng·h/mL
AUC(0-t) ([1]; Non-Micronized Formulation): 5910 ng·h/mL
Cmax ([1]; Non-Micronized Formulation): 166 ng/mL
AUC(0-inf) ([2]; Fasting): 8390 ng·h/mL
AUC(0-t) ([2]; Fasting): 6030 ng·h/mL
Cmax ([2]; Fasting): 177 ng/mL
AUC(0-inf) ([2]; Fed): 14000 ng·h/mL
AUC(0-t) ([2]; Fed): 9690 ng·h/mL
Cmax ([2]; Fed): 483 ng/mL
IC50 (PI3K isoforms (Human) γ): 1060 nM
hepatic toxicity [3]: no reported hepatic toxicity
tolerability [3]: well-tolerated
IC50 (PI3K isoforms (Human) β): 1120 nM
IC50 (PI3K isoforms (Human) α): > 10000 nM

Molecule: pembrolizumab: humanized monoclonal IgG4 kappa antibody directed against PD-1
ORR (patients with CLL): 0%
median PFS (patients with CLL): 2.4 months

B2: CTI-58 (antibody, V domains shown)
VH: B1 VH with Y105H
VL: B1 VL
Kd [4]: 24.1 nM
koff [5]: 0.0111 s⁻¹
kon [5]: 461000 M⁻¹ s⁻¹
IC50 [6]: 3.46 µg/mL

B3: CTI-57 (antibody, V domains shown)
VH: B1 VH with H100W, A101R, Y105H
VL: B1 VL
Kd [4]: 0.86 nM
koff [5]: 0.00045 s⁻¹
kon [5]: 520000 M⁻¹ s⁻¹
